Experimental data taken from paper PMC5578738.

Tests used:
[1] = biological target: Side-VI (CG34114) complete ectodomain, biotinylated (SPR) (Drosophila melanogaster) (UniProt Q0KI85); experiment: SPR; Biacore T100; biotinylated Side-VI captured on an SA chip, Beat-Va or Beat-Vb flowed over; HBSp+ with 500 mM NaCl and 15% glycerol; equilibrium responses fitted to a Langmuir isotherm
[2] = biological target: Beat-VI complete ectodomain, biotinylated (SPR) (Drosophila melanogaster) (UniProt Q9VAV8); experiment: SPR; Biacore 3000; biotinylated Beat-VI or Beat-Ic captured on an SA chip, Side-II or Side-III fragments flowed over; HBSp+ and 1% (w/v) BSA; equilibrium fit, three titration series
[3] = biological target: Beat-Ic complete ectodomain, biotinylated (SPR) (Drosophila melanogaster) (UniProt Q7JUP9); experiment: as above
Sequence of Beat-Ic complete ectodomain, biotinylated (SPR) (Drosophila melanogaster) (Q7JUP9 entry or part of it): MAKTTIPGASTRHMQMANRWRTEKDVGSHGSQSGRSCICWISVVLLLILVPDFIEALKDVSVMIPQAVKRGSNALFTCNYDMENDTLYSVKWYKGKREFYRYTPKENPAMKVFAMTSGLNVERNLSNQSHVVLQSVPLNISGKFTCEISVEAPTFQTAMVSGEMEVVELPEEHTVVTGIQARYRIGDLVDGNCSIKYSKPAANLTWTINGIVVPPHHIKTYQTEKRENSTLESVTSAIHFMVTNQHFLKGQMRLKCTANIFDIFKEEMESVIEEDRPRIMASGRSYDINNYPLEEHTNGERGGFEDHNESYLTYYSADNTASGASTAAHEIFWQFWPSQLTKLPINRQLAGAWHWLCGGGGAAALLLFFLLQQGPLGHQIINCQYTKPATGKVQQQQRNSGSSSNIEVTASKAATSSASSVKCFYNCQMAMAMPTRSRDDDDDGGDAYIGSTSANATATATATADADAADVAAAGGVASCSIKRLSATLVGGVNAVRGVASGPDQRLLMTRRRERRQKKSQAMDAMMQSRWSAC

Sequence of Side-VI (CG34114) complete ectodomain, biotinylated (SPR) (Drosophila melanogaster) (Q0KI85 entry or part of it): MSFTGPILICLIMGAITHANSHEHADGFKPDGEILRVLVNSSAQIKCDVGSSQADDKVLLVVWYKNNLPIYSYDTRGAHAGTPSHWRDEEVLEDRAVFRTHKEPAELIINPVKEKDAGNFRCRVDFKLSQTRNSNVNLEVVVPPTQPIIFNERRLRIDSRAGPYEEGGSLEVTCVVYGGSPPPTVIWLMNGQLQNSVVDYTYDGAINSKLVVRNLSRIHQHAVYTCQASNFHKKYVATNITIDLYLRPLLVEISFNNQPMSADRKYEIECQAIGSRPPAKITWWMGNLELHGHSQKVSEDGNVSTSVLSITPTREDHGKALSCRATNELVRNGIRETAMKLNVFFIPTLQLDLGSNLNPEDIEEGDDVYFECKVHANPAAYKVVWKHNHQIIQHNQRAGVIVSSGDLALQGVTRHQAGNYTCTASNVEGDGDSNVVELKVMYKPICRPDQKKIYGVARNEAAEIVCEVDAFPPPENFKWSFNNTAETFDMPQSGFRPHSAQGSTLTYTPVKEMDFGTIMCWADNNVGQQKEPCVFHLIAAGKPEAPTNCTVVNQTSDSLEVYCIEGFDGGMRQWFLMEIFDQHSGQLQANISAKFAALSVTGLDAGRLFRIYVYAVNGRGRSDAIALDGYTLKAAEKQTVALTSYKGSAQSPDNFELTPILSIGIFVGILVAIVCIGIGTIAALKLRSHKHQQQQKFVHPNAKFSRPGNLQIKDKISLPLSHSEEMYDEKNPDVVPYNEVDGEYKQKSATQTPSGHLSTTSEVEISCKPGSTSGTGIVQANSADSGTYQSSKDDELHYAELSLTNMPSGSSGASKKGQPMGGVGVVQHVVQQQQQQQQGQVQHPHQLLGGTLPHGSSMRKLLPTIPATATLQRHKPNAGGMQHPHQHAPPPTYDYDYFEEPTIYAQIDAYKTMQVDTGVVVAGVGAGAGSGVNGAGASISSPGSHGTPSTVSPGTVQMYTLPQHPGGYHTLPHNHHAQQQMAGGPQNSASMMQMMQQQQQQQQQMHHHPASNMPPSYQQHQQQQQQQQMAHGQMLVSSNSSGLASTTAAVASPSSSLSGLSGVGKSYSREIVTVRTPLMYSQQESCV
Sequence of Beat-VI complete ectodomain, biotinylated (SPR) (Drosophila melanogaster) (Q9VAV8 entry or part of it): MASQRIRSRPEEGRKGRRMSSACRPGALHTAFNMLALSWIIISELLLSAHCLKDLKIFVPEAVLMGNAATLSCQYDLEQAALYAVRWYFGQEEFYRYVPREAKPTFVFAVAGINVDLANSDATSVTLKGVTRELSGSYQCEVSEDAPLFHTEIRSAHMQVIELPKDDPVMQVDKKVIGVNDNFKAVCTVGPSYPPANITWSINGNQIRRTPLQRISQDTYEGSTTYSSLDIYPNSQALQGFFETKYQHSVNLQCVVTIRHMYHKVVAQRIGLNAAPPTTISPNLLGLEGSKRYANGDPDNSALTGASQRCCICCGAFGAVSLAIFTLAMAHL

Work on “Beat-Vb complete ectodomain (SPR) (from UniProt Q9VG19 1-328) (domain or fragment)” yielded a Kd [1] of 2.3 µM and a koff [1] of over 0.5 s⁻¹.

For “Side-II N-terminal single IgSF domain (SPR) (from UniProt Q59DZ1 1-1064) (domain or fragment)”, the Kd [2] was 2.78 µM.

Substance “Side-III N-terminal single IgSF domain (SPR) (domain or fragment)” has a Kd [3] of 63.5 µM.
